Laboratory results: patent US20260116991A1 (HAINAN SIMCERE ZAIMING PHARMACEUTICAL, published 2026)
Residue numbers refer to the chain shown, from its start. Each block holds one binder with its values, some of them ahead of it.

Tests used:
[1] = target: biotinylated labeled human GPC3 protein (produced in-house) (human, UniProt P51654 25-559, limits assumed, biotinylated (Dojindo, Cat. No. LK03); sites not stated); assay: ELISA, biotinylated human GPC3 protein
[2] = target: T1, human GPC3 on CHO-K1-human GPC3 cells (CHOK1-hGPC3.2B5) (human, UniProt P51654 25-554); assay: FACS, CHOK1-hGPC3.2B5 cells;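 note: flow cytometry of humanized antibodies binding to the cells over one hour in the cold, read as cell mean fluorescence intensity, with EC50 obtained by curve fitting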
T1 construct: whole, on cells
Experimental: The desired cells were expanded to a logarithmic growth phase in a T-75 cell culture flask, the medium was removed by pipetting, and the cells were washed twice with a PBS buffer, and digested with trypsin. Then a complete medium was added to stop the digestion, and the cells were blown into a single cell suspension. After counting, the cells were centrifuged, and the cell pellet was resuspended with an FACS buffer (PBS+2% fetal bovine serum) to 2×10⁶ cells/mL. The cell resuspension solution was added to a 96-well FACS reaction plate at 50 μl/well, and a humanized antibody sample to be tested was added at 50 μl/well for incubation at 4° C. for 1 h. […] After the plate was centrifuged and washed 3 times with a PBS buffer, 100 μl of the resulting solution was assayed and analyzed by FACS (FACS Canto™, purchased from BD Biosciences). Data analysis was performed by software (FlowJo) to obtain the mean fluorescence intensity (MFI) of the cells. Then, analysis was performed by software (GraphPad Prism8), data were fitted, and EC₅₀ values were calculated.

OD450 at 0.0008 nM [1]: 0.162 OD450
OD450 at 0.004 nM [1]: 0.341 OD450
OD450 at 0.02 nM [1]: 0.926 OD450
OD450 at 0.11 nM [1]: 2 OD450
OD450 at 0.53 nM [1]: 2.64 OD450
OD450 at 2.67 nM [1]: 2.67 OD450
OD450 at 13.33 nM [1]: 2.72 OD450
OD450 at 66.66 nM [1]: 2.74 OD450
EC50 [2]: 0.313 nM
Max MFI [2]: 3400 MFI
B1: hAb001H1L1 (antibody, human IgG1, V domains shown)
VH: EVQLVESGGGLVQPGGSLRLSCAASGFSFNTNAMNWVRQAPGKGLEWVGRIRSKSNNYATYYADSVKDRFTISRDDSKNSLYLQMNSLKTEDTAVYYCVRDGYYVLFAYWGQGTLVTVSS
VL: DIVMTQTPLSLPVTPGEPASISCRFSQSIVNSNGNTYLEWFLQKPGQSPQLLIYKVSNRFSGVPDRFSGSGSGTDFTLKISRVEAEDVGVYYCFQGSHVPFTFGQGTKLEIK
notes: Humanized F2.169.2; VH H1 + VL L1; expressed as human IgG1

OD450 at 0.0008 nM [1]: 0.121 OD450
OD450 at 0.004 nM [1]: 0.233 OD450
OD450 at 0.02 nM [1]: 0.654 OD450
OD450 at 0.11 nM [1]: 1.72 OD450
OD450 at 0.53 nM [1]: 2.26 OD450
OD450 at 2.67 nM [1]: 2.26 OD450
OD450 at 13.33 nM [1]: 2.33 OD450
OD450 at 66.66 nM [1]: 2.32 OD450
EC50 [2]: 6.56 nM
Max MFI [2]: 6190 MFI
B2: hAb007LH2L1 (antibody, human IgG1, V domains shown)
VH: EVQLVQSGAEVKKPGSSVKVSCKASGYTFTDYEMHWVRQAPGQGLEWMGTIDPETGNTAYNQKFKGRVTITADKSTSTAYMELSSLRSEDTAVYYCTRPYSLTYWGQGTLVTVSS
VL: B1 VL with F25S, I29F, N31H, N35D, E39Q, F41Y, F101Y
notes: Humanized F3.81.19; VH H2 + VL L1; expressed as human IgG1

OD450 at 0.0008 nM [1]: 0.16 OD450
OD450 at 0.004 nM [1]: 0.316 OD450
OD450 at 0.02 nM [1]: 0.872 OD450
OD450 at 0.11 nM [1]: 1.91 OD450
OD450 at 0.53 nM [1]: 2.41 OD450
OD450 at 2.67 nM [1]: 2.55 OD450
OD450 at 13.33 nM [1]: 2.4 OD450
OD450 at 66.66 nM [1]: 2.37 OD450
EC50 [2]: 1.14 nM
Max MFI [2]: 4790 MFI
B3: hAb006LH2L1b (antibody, human IgG1, V domains shown)
VH: B2 VH with M34I, T50A, E54K, K65M, P99Y, Y100F, L102F, T103A
VL: B1 VL with F25S, S28T, I29F, N31H, G34A, E39Q, F41Y, F101Y
notes: Humanized F3.38.7; VH H2 + VL L1b; expressed as human IgG1

OD450 at 0.0008 nM [1]: 0.15 OD450
OD450 at 0.004 nM [1]: 0.288 OD450
OD450 at 0.02 nM [1]: 0.841 OD450
OD450 at 0.11 nM [1]: 1.71 OD450
OD450 at 0.53 nM [1]: 2.4 OD450
OD450 at 2.67 nM [1]: 2.46 OD450
OD450 at 13.33 nM [1]: 2.47 OD450
OD450 at 66.66 nM [1]: 2.57 OD450
EC50 [2]: 1.1 nM
Max MFI [2]: 4630 MFI
B4: hAb006LH1L1b (antibody, human IgG1, V domains shown)
VH: B2 VH with T30S, M34I, T50A, E54K, K65M, P99Y, Y100F, L102F, T103A
VL: B1 VL with F25S, S28T, I29F, N31H, G34A, E39Q, F41Y, F101Y
notes: Humanized F3.38.7; VH H1 + VL L1b; expressed as human IgG1

OD450 at 0.0008 nM [1]: 0.171 OD450
OD450 at 0.004 nM [1]: 0.372 OD450
OD450 at 0.02 nM [1]: 1.05 OD450
OD450 at 0.11 nM [1]: 1.97 OD450
OD450 at 0.53 nM [1]: 2.44 OD450
OD450 at 2.67 nM [1]: 2.39 OD450
OD450 at 13.33 nM [1]: 2.5 OD450
OD450 at 66.66 nM [1]: 2.6 OD450
EC50 [2]: 0.584 nM
Max MFI [2]: 5000 MFI
B5: hAb003LH2L1b (antibody, human IgG1, V domains shown)
VH: B2 VH with T28R, N61T, K65M, G66D, P99G, L102F
VL: B1 VL with F25S, S28N, N31H, G34R, E39Q, F41Y, Y54F
notes: Humanized F2.154.1; VH H2 + VL L1b; expressed as human IgG1

OD450 at 0.0008 nM [1]: 0.16 OD450
OD450 at 0.004 nM [1]: 0.427 OD450
OD450 at 0.02 nM [1]: 1.19 OD450
OD450 at 0.11 nM [1]: 2.15 OD450
OD450 at 0.53 nM [1]: 2.5 OD450
OD450 at 2.67 nM [1]: 2.47 OD450
OD450 at 13.33 nM [1]: 2.57 OD450
OD450 at 66.66 nM [1]: 2.49 OD450
EC50 [2]: 1.42 nM
Max MFI [2]: 5220 MFI
B6: hAb003LH1L1 (antibody, human IgG1, V domains shown)
VH: B2 VH with T30S, N61T, K65M, G66D, P99G, L102F
VL: B1 VL with F25S, S28N, N31H, E39Q, F41Y, Y54F
notes: Humanized F2.154.1; VH H1 + VL L1; expressed as human IgG1

OD450 at 0.0008 nM [1]: 0.151 OD450
OD450 at 0.004 nM [1]: 0.376 OD450
OD450 at 0.02 nM [1]: 1.03 OD450
OD450 at 0.11 nM [1]: 1.98 OD450
OD450 at 0.53 nM [1]: 2.43 OD450
OD450 at 2.67 nM [1]: 2.47 OD450
OD450 at 13.33 nM [1]: 2.53 OD450
OD450 at 66.66 nM [1]: 2.54 OD450
EC50 [2]: 1.07 nM
Max MFI [2]: 5140 MFI
B7: hAb003LH2L1 (antibody, human IgG1, V domains shown)
VH: B2 VH with T28R, N61T, K65M, G66D, P99G, L102F
VL: B1 VL with F25S, S28N, N31H, E39Q, F41Y, Y54F
notes: Humanized F2.154.1; VH H2 + VL L1; expressed as human IgG1

OD450 at 0.0008 nM [1]: 0.088 OD450
OD450 at 0.004 nM [1]: 0.146 OD450
OD450 at 0.02 nM [1]: 0.423 OD450
OD450 at 0.11 nM [1]: 1.18 OD450
OD450 at 0.53 nM [1]: 1.9 OD450
OD450 at 2.67 nM [1]: 2.14 OD450
OD450 at 13.33 nM [1]: 2.18 OD450
OD450 at 66.66 nM [1]: 2.34 OD450
EC50 [2]: 11.6 nM
Max MFI [2]: 1770 MFI
B8: hAb003LH2L1a (antibody, human IgG1, V domains shown)
VH: B2 VH with T28R, N61T, K65M, G66D, P99G, L102F
VL: B1 VL with F25S, S28N, N31H, N33D, E39Q, F41Y, Y54F
notes: Humanized F2.154.1; VH H2 + VL L1a; expressed as human IgG1

OD450 at 0.0008 nM [1]: 0.184 OD450
OD450 at 0.004 nM [1]: 0.327 OD450
OD450 at 0.02 nM [1]: 0.874 OD450
OD450 at 0.11 nM [1]: 1.85 OD450
OD450 at 0.53 nM [1]: 2.33 OD450
OD450 at 2.67 nM [1]: 2.42 OD450
OD450 at 13.33 nM [1]: 2.54 OD450
OD450 at 66.66 nM [1]: 2.67 OD450
EC50 [2]: 0.269 nM
Max MFI [2]: 3270 MFI
B9: hAb001H1aL1 (antibody, human IgG1, V domains shown)
VH: B1 VH with D68G
VL: B1 VL
notes: Humanized F2.169.2; VH H1a + VL L1; expressed as human IgG1

OD450 at 0.0008 nM [1]: 0.192 OD450
OD450 at 0.004 nM [1]: 0.629 OD450
OD450 at 0.02 nM [1]: 1 OD450
OD450 at 0.11 nM [1]: 1.83 OD450
OD450 at 0.53 nM [1]: 2.36 OD450
OD450 at 2.67 nM [1]: 2.4 OD450
OD450 at 13.33 nM [1]: 2.29 OD450
OD450 at 66.66 nM [1]: 2.28 OD450
EC50 [2]: 1.02 nM
Max MFI [2]: 4880 MFI
B10: hAb006LH2L1 (antibody, human IgG1, V domains shown)
VH: B2 VH with M34I, T50A, E54K, K65M, P99Y, Y100F, L102F, T103A
VL: B1 VL with F25S, S28T, I29F, N31H, E39Q, F41Y, F101Y
notes: Humanized F3.38.7; VH H2 + VL L1; expressed as human IgG1
